Results from US20200392227A1 (LYVGEN BIOPHARMA, published 2020).
Read-outs that look alike come from different tables or passages of the source.

What was measured:
Experiment in all cases: BLI
[1] = target: T1, human FcRI protein (MednaBio, E1031) (human, UniProt P12314 16-288, limits assumed)
T1 construct: Bought; loaded on anti-penta-HIS biosensors; also called FcγRI

[2] = target: T2, human FcRIIA protein (MednaBio, E1033) (human, UniProt P12318 34-218, limits assumed)
T2 construct: Bought; also called FcγRIIA
T2 sequence (looked up): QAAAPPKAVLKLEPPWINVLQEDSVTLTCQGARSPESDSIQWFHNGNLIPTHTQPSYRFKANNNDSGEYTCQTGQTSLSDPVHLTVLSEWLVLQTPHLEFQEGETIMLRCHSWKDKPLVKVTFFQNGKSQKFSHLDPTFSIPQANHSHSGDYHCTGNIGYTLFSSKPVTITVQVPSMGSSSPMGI

[3] = target: T3, human FcRIIB/C protein (MednaBio, E1034) (human, UniProt P31994 43-217, limits assumed)
T3 construct: Bought as FcRIIB/C; also called FcγRIIB; CD32B
T3 sequence (looked up): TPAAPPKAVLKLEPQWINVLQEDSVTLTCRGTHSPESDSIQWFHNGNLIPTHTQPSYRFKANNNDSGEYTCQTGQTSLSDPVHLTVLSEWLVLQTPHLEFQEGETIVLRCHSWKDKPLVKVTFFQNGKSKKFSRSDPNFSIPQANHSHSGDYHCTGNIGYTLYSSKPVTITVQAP

[4] = target: T4, human FcRIIIA-V158 protein (MednaBio, E1035) (human, UniProt P08637 17-208)
T4 construct: Bought; also called FcγRIIIA(V); FcgRIIIA(V)
T4 sequence (P08637 17-208 F176V): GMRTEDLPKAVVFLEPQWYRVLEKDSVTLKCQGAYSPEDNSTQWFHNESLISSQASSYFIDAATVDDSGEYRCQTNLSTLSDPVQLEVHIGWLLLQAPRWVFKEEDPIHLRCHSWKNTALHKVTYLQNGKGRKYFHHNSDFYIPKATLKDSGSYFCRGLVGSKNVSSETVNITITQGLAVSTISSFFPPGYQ

[5] = target: T5, human FcRn protein (MednaBio, E1032) (human, UniProt P55899 24-297; P61769 21-119)
T5 construct: Bought; assays at pH 6
T5 sequence (P55899 24-297 limits assumed, form in doubt, chain 1 of 2): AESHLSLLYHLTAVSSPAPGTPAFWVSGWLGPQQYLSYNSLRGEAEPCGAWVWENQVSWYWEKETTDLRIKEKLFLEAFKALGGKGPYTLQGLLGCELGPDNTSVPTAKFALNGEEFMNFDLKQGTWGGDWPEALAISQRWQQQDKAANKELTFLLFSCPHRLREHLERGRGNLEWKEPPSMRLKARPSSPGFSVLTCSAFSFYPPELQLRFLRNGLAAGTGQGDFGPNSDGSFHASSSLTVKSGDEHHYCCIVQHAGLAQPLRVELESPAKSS
T5 sequence (P61769 21-119 limits assumed, form in doubt, chain 2 of 2): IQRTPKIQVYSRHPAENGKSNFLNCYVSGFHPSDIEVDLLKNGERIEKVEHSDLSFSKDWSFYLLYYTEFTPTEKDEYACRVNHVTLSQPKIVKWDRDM

[6] = target: T6, human FcRIIIA-F158 protein (MednaBio, E1036) (human, UniProt P08637 17-208)
T6 construct: Bought; also called FcγRIIIA(F)
T6 sequence (P08637 17-208 limits assumed): as the sequence (P08637 17-208 F176V) above, with V160F counted along it
In short: (§1)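 On an Octet Red96 System, anti-penta-HIS biosensors loaded with commercial human Fc receptor proteins were dipped into test IgG diluted 1:3 over 8 points from 300 nM. Fcγ receptor runs used pH 7.2 and FcRn runs used pH 6. Global fitting of these biolayer interferometry data gave the values for Kd, kon and koff, using a 1:1 binding model.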

[7] = target: T7, human FcRIIIB protein (MednaBio, E1037) (human, UniProt O75015 17-200)
T7 construct: Bought; also called FcγRIIIB; FcgRIIIB
T7 sequence (O75015 17-200 limits assumed): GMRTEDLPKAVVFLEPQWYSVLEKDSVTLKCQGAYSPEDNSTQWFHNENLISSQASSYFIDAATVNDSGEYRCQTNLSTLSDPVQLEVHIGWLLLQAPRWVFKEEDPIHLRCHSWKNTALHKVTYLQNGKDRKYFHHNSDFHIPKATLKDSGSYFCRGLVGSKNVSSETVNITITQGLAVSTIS
In short: as §1

[8] = target: T1, human FcRI protein (MednaBio, E1031); remark: listed apart in the source
In short: as §1

[9] = target: T3, human FcRIIB/C protein (MednaBio, E1034); remark: listed apart in the source
In short: as §1

[10] = target: T4, human FcRIIIA-V158 protein (MednaBio, …); remark: listed apart in the source
In short: as §1

[11] = target: T5, human FcRn protein (MednaBio, E1032); remark: listed apart in the source
In short: as §1

[12] = target: T1, human FcRI protein (MednaBio, E1031); remark: listed apart in the source
In short: as §1

[13] = target: T2, human FcRIIA protein (MednaBio, E1033); remark: listed apart in the source
In short: as §1

[14] = target: T3, human FcRIIB/C protein (MednaBio, E1034); remark: listed apart in the source
In short: as §1

[15] = target: T4, human FcRIIIA-V158 protein (MednaBio, …); remark: listed apart in the source
In short: as §1

[16] = target: T5, human FcRn protein (MednaBio, E1032); remark: listed apart in the source
In short: as §1

T1 sequence (P12314 16-288 limits assumed): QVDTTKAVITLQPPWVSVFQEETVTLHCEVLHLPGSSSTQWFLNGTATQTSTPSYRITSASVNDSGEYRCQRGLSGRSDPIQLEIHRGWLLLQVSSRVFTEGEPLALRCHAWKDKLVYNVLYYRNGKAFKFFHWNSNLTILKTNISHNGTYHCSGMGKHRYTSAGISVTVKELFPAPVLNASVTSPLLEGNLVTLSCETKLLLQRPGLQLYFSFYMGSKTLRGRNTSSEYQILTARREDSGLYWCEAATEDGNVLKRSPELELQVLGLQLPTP

B1: wild-type human IgG1 control (antibody)
heavy: not shown
light: SYELTQPPSVSVSPGQTASITCSGDNIGDQYAHWYQQKPGQSPVLVIYQDKNRPSGIPERFSGSNSGNTATLTISGTQAMDEADYYCATYTGFGSLAVFGGGTKLTVLGQPKAAPSVTLFPPSSEELQANKATLVCLISDFYPGAVTVAWKADSSPVKAGVETTTPSKQSNNKYAASSYLSLTPEQWKSHRSYSCQVTHEGSTVEKTVAPTECS
notes: Control IgG
B1 was tested, and the Kd [1] was 5.6 nM, the koff [1] was 0.0012 s⁻¹ and the kon [1] was 220000 M⁻¹ s⁻¹. The Kd [2] was 56 nM, the koff [2] was 0.032 s⁻¹ and the kon [2] was 570000 M⁻¹ s⁻¹. The Kd [3] was 130 nM, the koff [3] was 0.016 s⁻¹ and the kon [3] was 120000 M⁻¹ s⁻¹. The Kd [4] was 60 nM, the koff [4] was 0.027 s⁻¹ and the kon [4] was 450000 M⁻¹ s⁻¹. It also gave a Kd [5] of 16 nM, a koff [5] of 0.008 s⁻¹ and a kon [5] of 480000 M⁻¹ s⁻¹. It also gave a Kd [6] of 120 nM, a koff [6] of 0.02 s⁻¹ and a kon [6] of 170000 M⁻¹ s⁻¹. The Kd [7] was 130 nM, the koff [7] was 0.027 s⁻¹ and the kon [7] was 210000 M⁻¹ s⁻¹. For the same binder, the Kd [8] was 5.6 nM, the koff [8] was 0.0012 s⁻¹ and the kon [8] was 220000 M⁻¹ s⁻¹. The Kd [9] was 130 nM, the koff [9] was 0.016 s⁻¹ and the kon [9] was 120000 M⁻¹ s⁻¹. The Kd [10] was 60 nM, the koff [10] was 0.027 s⁻¹ and the kon [10] was 450000 M⁻¹ s⁻¹. For the same binder, the Kd [11] was 16 nM, the koff [11] was 0.008 s⁻¹ and the kon [11] was 480000 M⁻¹ s⁻¹.

B2: wild-type human IgG4 control (antibody)
heavy: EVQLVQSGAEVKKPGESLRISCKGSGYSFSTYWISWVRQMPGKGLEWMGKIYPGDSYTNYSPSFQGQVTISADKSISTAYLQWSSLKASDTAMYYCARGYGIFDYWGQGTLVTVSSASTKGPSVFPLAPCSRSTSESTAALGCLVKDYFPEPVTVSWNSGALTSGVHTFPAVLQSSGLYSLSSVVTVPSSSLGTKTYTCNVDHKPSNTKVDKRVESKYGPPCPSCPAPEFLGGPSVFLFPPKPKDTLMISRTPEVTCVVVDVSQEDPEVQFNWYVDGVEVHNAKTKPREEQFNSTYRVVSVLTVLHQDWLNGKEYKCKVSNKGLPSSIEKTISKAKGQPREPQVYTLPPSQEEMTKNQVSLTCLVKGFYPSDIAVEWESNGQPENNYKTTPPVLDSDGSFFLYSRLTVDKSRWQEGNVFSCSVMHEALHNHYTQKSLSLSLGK
light: B1 light
notes: Control IgG
Binder B2 has a Kd [1] of 4.8 nM, a koff [1] of 0.0017 s⁻¹ and a kon [1] of 360000 M⁻¹ s⁻¹. For the same binder, the Kd [2] was 400 nM, the koff [2] was 0.055 s⁻¹ and the kon [2] was 140000 M⁻¹ s⁻¹. The Kd [3] was 400 nM, the koff [3] was 0.05 s⁻¹ and the kon [3] was 140000 M⁻¹ s⁻¹. It also gave a Kd [4] of 550 nM, a koff [4] of 0.092 s⁻¹ and a kon [4] of 170000 M⁻¹ s⁻¹. It also gave a Kd [5] of 18 nM, a koff [5] of 0.012 s⁻¹ and a kon [5] of 640000 M⁻¹ s⁻¹. For the same binder, the Kd [8] was 4.8 nM, the koff [8] was 0.0017 s⁻¹ and the kon [8] was 360000 M⁻¹ s⁻¹. For the same binder, the Kd [9] was 400 nM, the koff [9] was 0.05 s⁻¹ and the kon [9] was 140000 M⁻¹ s⁻¹. The Kd [10] was 550 nM, the koff [10] was 0.092 s⁻¹ and the kon [10] was 170000 M⁻¹ s⁻¹. The Kd [11] was 18 nM, the koff [11] was 0.012 s⁻¹ and the kon [11] was 640000 M⁻¹ s⁻¹. It also gave a Kd [12] of 4.8 nM, a koff [12] of 0.0017 s⁻¹ and a kon [12] of 360000 M⁻¹ s⁻¹. For the same binder, the Kd [13] was 400 nM, the koff [13] was 0.055 s⁻¹ and the kon [13] was 140000 M⁻¹ s⁻¹. It also gave a Kd [14] of 400 nM, a koff [14] of 0.05 s⁻¹ and a kon [14] of 140000 M⁻¹ s⁻¹. It also gave a Kd [15] of 550 nM, a koff [15] of 0.092 s⁻¹ and a kon [15] of 170000 M⁻¹ s⁻¹. For the same binder, the Kd [16] was 18 nM, the koff [16] was 0.012 s⁻¹ and the kon [16] was 640000 M⁻¹ s⁻¹.
